Data: the supplement of paper PMC9112550, “Optimization of the antimicrobial peptide Bac7 by deep mutational scanning” (BMC Biology, 2022)

Tested on: Escherichia coli TOP10
Assay: shrunken log2 fold change of peptide-encoding DNA abundance (4.5 h post-induction vs induction); higher = less antimicrobial activity (less host growth inhibition)
Details: time post-induction: 4.5 h; library: site-saturation at positions 5, 18, 19, 20
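Further: peptides expressed intracellularly from a pBAD plasmid library in pooled LB shake-flask culture, induced with 0.3% L-arabinose, DNA abundance read by NGS, three biological replicates, DESeq2 with apeglm shrinkage.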

Sequence	shrunken log2 fold change
RRIRARPPRLPRPRPRPFDSPRP	-0.0745
RRIRARPPRLPRPRPRPFFMPRP	-0.0309
RRIRARPPRLPRPRPRPFGAPRP	0.929
RRIRARPPRLPRPRPRPFGQPRP	-0.0155
RRIRARPPRLPRPRPRPFHGPRP	0.0917
RRIRARPPRLPRPRPRPFIAPRP	0.0626
RRIRARPPRLPRPRPRPFIRPRP	-0.27
RRIRARPPRLPRPRPRPFKRPRP	0.0331
RRIRARPPRLPRPRPRPFLTPRP	0.085
RRIRARPPRLPRPRPRPFMWPRP	0.065
RRIRARPPRLPRPRPRPFNIPRP	-0.307
RRIRARPPRLPRPRPRPFNNPRP	-0.688
RRIRARPPRLPRPRPRPFQCPRP	0.0143
RRIRARPPRLPRPRPRPFQIPRP	-0.0627
RRIRARPPRLPRPRPRPFRQPRP	0.0566
RRIRARPPRLPRPRPRPFRTPRP	0.12
RRIRARPPRLPRPRPRPFSHPRP	-0.124
RRIRARPPRLPRPRPRPFTHPRP	-0.113
RRIRARPPRLPRPRPRPFTWPRP	-0.193
RRIRARPPRLPRPRPRPFWFPRP	0.0903

Sequence	shrunken log2 fold change
RRIRARPPRLPRPRPRPFYEPRP	-0.125
RRIRARPPRLPRPRPRPFYMPRP	-0.45
RRIRARPPRLPRPRPRPGACPRP	0.783
RRIRARPPRLPRPRPRPGADPRP	0.832
RRIRARPPRLPRPRPRPGAIPRP	0.828
RRIRARPPRLPRPRPRPGAKPRP	0.623
RRIRARPPRLPRPRPRPGCYPRP	-0.00374
RRIRARPPRLPRPRPRPGDEPRP	0.393
RRIRARPPRLPRPRPRPGEIPRP	0.599
RRIRARPPRLPRPRPRPGFAPRP	0.57
RRIRARPPRLPRPRPRPGFEPRP	0.735
RRIRARPPRLPRPRPRPGFQPRP	0.092
RRIRARPPRLPRPRPRPGGEPRP	0.694
RRIRARPPRLPRPRPRPGGGPRP	0.898
RRIRARPPRLPRPRPRPGGQPRP	0.262
RRIRARPPRLPRPRPRPGGSPRP	0.535
RRIRARPPRLPRPRPRPGHCPRP	0.0986
RRIRARPPRLPRPRPRPGHFPRP	0.0329
RRIRARPPRLPRPRPRPGHNPRP	-0.0862
RRIRARPPRLPRPRPRPGIEPRP	0.108

Sequence	shrunken log2 fold change
RRIRARPPRLPRPRPRPGIWPRP	0.168
RRIRARPPRLPRPRPRPGLIPRP	0.0698
RRIRARPPRLPRPRPRPGLSPRP	0.821
RRIRARPPRLPRPRPRPGNCPRP	0.061
RRIRARPPRLPRPRPRPGNEPRP	0.215
RRIRARPPRLPRPRPRPGNGPRP	0.275
RRIRARPPRLPRPRPRPGQAPRP	-0.0216
RRIRARPPRLPRPRPRPGQPPRP	0.00358
RRIRARPPRLPRPRPRPGRGPRP	0.486
RRIRARPPRLPRPRPRPGRIPRP	0.148
RRIRARPPRLPRPRPRPGRPPRP	0.801
RRIRARPPRLPRPRPRPGSKPRP	0.227
RRIRARPPRLPRPRPRPGTAPRP	0.493
RRIRARPPRLPRPRPRPGTYPRP	-0.257
RRIRARPPRLPRPRPRPGVNPRP	-0.238
RRIRARPPRLPRPRPRPGWDPRP	0.811
RRIRARPPRLPRPRPRPGWFPRP	0.524
RRIRARPPRLPRPRPRPHAPPRP	0.54
RRIRARPPRLPRPRPRPHCFPRP	0.36
RRIRARPPRLPRPRPRPHCGPRP	0.507
